Experimental findings from patent US20170101454A1 (Novo Nordisk, published 2017) are described below.

Starred links: 1 amine or outer side, 2 acyl side, 3 side chain; linkers in the order of their positions; H or OH if unused. Non-standard residues stand in square brackets, D forms with d. Groups on a side chain read outwards from the residue. No end group written: not given here. *: point of attachment. C18 diacid = O=C(O)CCCCCCCCCCCCCCCCC(=O)*; γGlu = O=C(O)[C@H](CCC(=O)[*:2])N[*:1]; Ac4c = NC1(C(=O)O)CCC1; AEEA = NCCOCCOCC(=O)O; Aib = CC(C)(N)C(=O)O

For assay [1], the target named is T1, human GLP-1 receptor (human, UniProt P43220 24-463). The assay can be described thus: cell-based or functional assay.
In assay [2] the target is T2, human glucagon receptor (human, UniProt P47871 26-477). Kind of assay: cell-based or functional assay.
T2 sequence (P47871 26-477): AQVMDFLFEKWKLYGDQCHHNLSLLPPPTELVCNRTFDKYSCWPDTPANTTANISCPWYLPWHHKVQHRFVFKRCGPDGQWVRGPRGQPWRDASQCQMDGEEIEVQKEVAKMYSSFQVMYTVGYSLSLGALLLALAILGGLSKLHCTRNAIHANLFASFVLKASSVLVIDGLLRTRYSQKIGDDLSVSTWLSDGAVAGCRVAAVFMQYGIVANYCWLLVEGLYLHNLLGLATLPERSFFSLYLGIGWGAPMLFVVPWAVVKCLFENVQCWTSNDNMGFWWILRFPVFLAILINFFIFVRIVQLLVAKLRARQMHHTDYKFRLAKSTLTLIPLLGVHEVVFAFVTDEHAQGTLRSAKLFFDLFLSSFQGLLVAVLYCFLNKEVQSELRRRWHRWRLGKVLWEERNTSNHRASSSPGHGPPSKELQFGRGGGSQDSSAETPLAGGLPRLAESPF
Assay [3] has as its target T1, human GLP-1 receptor. The assay can be described thus: displacement of [125I]-GLP-1-(7-36)NH2 from BHK membranes with human GLP-1R, SPA, no serum albumin. Background: Loss of bound radioactivity is the signal in a displacement assay; it reports binding, not function.
Assay [4] has as its target T2, human glucagon receptor. Kind of assay: displacement of [125I]-glucagon from BHK membranes with human glucagon receptor, SPA, no serum albumin.

B1: N^ε28-[(4S)-4-carboxy-4-[[(4S)-4-carboxy-4-[[2-[2-[2-[[2-[2-[2-[[(4S)-4-carboxy-4-(17-carboxyheptadecanoylamino)butanoyl]amino]ethoxy]ethoxy]acetyl]amino]ethoxy … (peptide)
peptide: H[Aib]QGTFTSDYSKYLESRRAQDFVAWLIK([γGlu-γGlu-AEEA-AEEA-γGlu-C18 diacid])T-NH2
modifications: N-terminus assumed
SMILES: CC[C@H](C)[C@H](NC(=O)[C@H](CC(C)C)NC(=O)[C@H](Cc1c[nH]c2ccccc12)NC(=O)[C@H](C)NC(=O)[C@@H](NC(=O)[C@H](Cc1ccccc1)NC(=O)[C@H](CC(=O)O)NC(=O)[C@H](CCC(N)=O)NC(=O)[C@H](C)NC(=O)[C@H](CCCNC(=N)N)NC(=O)[C@H](CCCNC(=N)N)NC(=O)[C@H](CO)NC(=O)[C@H](CCC(=O)O)NC(=O)[C@H](CC(C)C)NC(=O)[C@H](Cc1ccc(O)cc1)NC(=O)[C@H](CCCCN)NC(=O)[C@H](CO)NC(=O)[C@H](Cc1ccc(O)cc1)NC(=O)[C@H](CC(=O)O)NC(=O)[C@H](CO)NC(=O)[C@@H](NC(=O)[C@H](Cc1ccccc1)NC(=O)[C@@H](NC(=O)CNC(=O)[C@H](CCC(N)=O)NC(=O)C(C)(C)NC(=O)[C@@H](N)Cc1c[nH]cn1)[C@@H](C)O)[C@@H](C)O)C(C)C)C(=O)N[C@@H](CCCCNC(=O)CC[C@H](NC(=O)CC[C@H](NC(=O)COCCOCCNC(=O)COCCOCCNC(=O)CC[C@H](NC(=O)CCCCCCCCCCCCCCCCC(=O)O)C(=O)O)C(=O)O)C(=O)O)C(=O)N[C@H](C(N)=O)[C@@H](C)O
notes: also called Chem. 34; Chem 34
As a reminder, the IC50 is the midpoint of a concentration-inhibition curve. Lower therefore signals greater potency. B1: the “GLP-1R EC50 (pM) [Assay (I)(a)], CRE luciferase reporter, BHK cells” value (“GLP-1R EC50 (pM) [Assay (I)(a)]” for short) with human GLP-1 receptor [1] came to 3 pM. In addition, the “GlucagonR EC50 (pM), [Assay (I)(b)], CRE luciferase reporter, BHK cells” value (“GlucagonR EC50 (pM), [Assay (I)(b)]” below) with human glucagon receptor [2] was determined as 66 pM. For the same molecule, the IC50 came to 2.2 nM in the assay with human GLP-1 receptor [3] and 7 nM in the assay with human glucagon receptor [4].

With H[Ac4c]QGTFTSDLSKYLESRRAREFVQWLIK([γGlu-γGlu-AEEA-AEEA-γGlu-γGlu-C18 diacid])T-NH2 (also called Chem. 13; Chem 13), the “GLP-1R EC50 (pM) [Assay (I)(a)]” value with human GLP-1 receptor [1] was 4 pM. The “GlucagonR EC50 (pM), [Assay (I)(b)]” value with human glucagon receptor [2] is 23 pM. Besides, the IC50 amounted to 0.1 nM in the assay with human GLP-1 receptor [3] and 1.8 nM with human glucagon receptor [4].

B2: N^ε28-[(4S)-4-carboxy-4-[[(4S)-4-carboxy-4-[[2-[2-[2-[[2-[2-[2-[[(4S)-4-carboxy-4-[[(4S)-4-carboxy-4-(17-carboxyheptadecanoylamino)butanoyl]amino]butanoyl]amino … (peptide)
peptide: H[Aib]QGTFTSDLSKYLESRRAREFVQWLIK([γGlu-γGlu-AEEA-AEEA-γGlu-γGlu-C18 diacid])T-NH2
modifications: N-terminus assumed
SMILES: CC[C@H](C)[C@H](NC(=O)[C@H](CC(C)C)NC(=O)[C@H](Cc1c[nH]c2ccccc12)NC(=O)[C@H](CCC(N)=O)NC(=O)[C@@H](NC(=O)[C@H](Cc1ccccc1)NC(=O)[C@H](CCC(=O)O)NC(=O)[C@H](CCCNC(=N)N)NC(=O)[C@H](C)NC(=O)[C@H](CCCNC(=N)N)NC(=O)[C@H](CCCNC(=N)N)NC(=O)[C@H](CO)NC(=O)[C@H](CCC(=O)O)NC(=O)[C@H](CC(C)C)NC(=O)[C@H](Cc1ccc(O)cc1)NC(=O)[C@H](CCCCN)NC(=O)[C@H](CO)NC(=O)[C@H](CC(C)C)NC(=O)[C@H](CC(=O)O)NC(=O)[C@H](CO)NC(=O)[C@@H](NC(=O)[C@H](Cc1ccccc1)NC(=O)[C@@H](NC(=O)CNC(=O)[C@H](CCC(N)=O)NC(=O)C(C)(C)NC(=O)[C@@H](N)Cc1c[nH]cn1)[C@@H](C)O)[C@@H](C)O)C(C)C)C(=O)N[C@@H](CCCCNC(=O)CC[C@H](NC(=O)CC[C@H](NC(=O)COCCOCCNC(=O)COCCOCCNC(=O)CC[C@H](NC(=O)CC[C@H](NC(=O)CCCCCCCCCCCCCCCCC(=O)O)C(=O)O)C(=O)O)C(=O)O)C(=O)O)C(=O)N[C@H](C(N)=O)[C@@H](C)O
notes: also called Chem. 25; Chem 25
On to B2, for which the “GLP-1R EC50 (pM) [Assay (I)(a)]” value in the assay with human GLP-1 receptor [1] worked out at 2 pM. The “GlucagonR EC50 (pM), [Assay (I)(b)]” value in the assay with human glucagon receptor [2] came out at 52 pM. In addition, the IC50 with human GLP-1 receptor [3] was 0.1 nM; in the assay with human glucagon receptor [4], 11.2 nM.

B3: N^ε29-[(4S)-4-carboxy-4-[[(4S)-4-carboxy-4-[[2-[2-[2-[[2-[2-[2-[[(4S)-4-carboxy-4-(17-carboxyheptadecanoylamino)butanoyl]amino]ethoxy]ethoxy]acetyl]amino]ethoxy … (peptide)
peptide: H[Aib]QGTFTSDLSKYLDARRARDFVQWLINK([γGlu-γGlu-AEEA-AEEA-γGlu-C18 diacid])-NH2
modifications: N-terminus assumed
SMILES: CC[C@H](C)[C@H](NC(=O)[C@H](CC(C)C)NC(=O)[C@H](Cc1c[nH]c2ccccc12)NC(=O)[C@H](CCC(N)=O)NC(=O)[C@@H](NC(=O)[C@H](Cc1ccccc1)NC(=O)[C@H](CC(=O)O)NC(=O)[C@H](CCCNC(=N)N)NC(=O)[C@H](C)NC(=O)[C@H](CCCNC(=N)N)NC(=O)[C@H](CCCNC(=N)N)NC(=O)[C@H](C)NC(=O)[C@H](CC(=O)O)NC(=O)[C@H](CC(C)C)NC(=O)[C@H](Cc1ccc(O)cc1)NC(=O)[C@H](CCCCN)NC(=O)[C@H](CO)NC(=O)[C@H](CC(C)C)NC(=O)[C@H](CC(=O)O)NC(=O)[C@H](CO)NC(=O)[C@@H](NC(=O)[C@H](Cc1ccccc1)NC(=O)[C@@H](NC(=O)CNC(=O)[C@H](CCC(N)=O)NC(=O)C(C)(C)NC(=O)[C@@H](N)Cc1c[nH]cn1)[C@@H](C)O)[C@@H](C)O)C(C)C)C(=O)N[C@@H](CC(N)=O)C(=O)N[C@@H](CCCCNC(=O)CC[C@H](NC(=O)CC[C@H](NC(=O)COCCOCCNC(=O)COCCOCCNC(=O)CC[C@H](NC(=O)CCCCCCCCCCCCCCCCC(=O)O)C(=O)O)C(=O)O)C(=O)O)C(N)=O
notes: also called Chem. 20; Chem 20
Consider B3, for which the “GLP-1R EC50 (pM) [Assay (I)(a)]” value with human GLP-1 receptor [1] came out at 4 pM. For the same molecule, the “GlucagonR EC50 (pM), [Assay (I)(b)]” value with human glucagon receptor [2] was 70 pM. The IC50 was determined as 0.1 nM in the assay with human GLP-1 receptor [3] and 13.6 nM in the assay with human glucagon receptor [4].

B4: N^ε28-[(4S)-4-carboxy-4-[[(4S)-4-carboxy-4-[[2-[2-[2-[[2-[2-[2-[[(4S)-4-carboxy-4-[[(4S)-4-carboxy-4-(17-carboxyheptadecanoylamino)butanoyl]amino]butanoyl]amino … (peptide)
peptide: H[Ac4c]QGTFTSDLSRYLESRRAREFVQWLIK([γGlu-γGlu-AEEA-AEEA-γGlu-γGlu-C18 diacid])T-NH2
modifications: N-terminus assumed
SMILES: CC[C@H](C)[C@H](NC(=O)[C@H](CC(C)C)NC(=O)[C@H](Cc1c[nH]c2ccccc12)NC(=O)[C@H](CCC(N)=O)NC(=O)[C@@H](NC(=O)[C@H](Cc1ccccc1)NC(=O)[C@H](CCC(=O)O)NC(=O)[C@H](CCCNC(=N)N)NC(=O)[C@H](C)NC(=O)[C@H](CCCNC(=N)N)NC(=O)[C@H](CCCNC(=N)N)NC(=O)[C@H](CO)NC(=O)[C@H](CCC(=O)O)NC(=O)[C@H](CC(C)C)NC(=O)[C@H](Cc1ccc(O)cc1)NC(=O)[C@H](CCCNC(=N)N)NC(=O)[C@H](CO)NC(=O)[C@H](CC(C)C)NC(=O)[C@H](CC(=O)O)NC(=O)[C@H](CO)NC(=O)[C@@H](NC(=O)[C@H](Cc1ccccc1)NC(=O)[C@@H](NC(=O)CNC(=O)[C@H](CCC(N)=O)NC(=O)C1(NC(=O)[C@@H](N)Cc2c[nH]cn2)CCC1)[C@@H](C)O)[C@@H](C)O)C(C)C)C(=O)N[C@@H](CCCCNC(=O)CC[C@H](NC(=O)CC[C@H](NC(=O)COCCOCCNC(=O)COCCOCCNC(=O)CC[C@H](NC(=O)CC[C@H](NC(=O)CCCCCCCCCCCCCCCCC(=O)O)C(=O)O)C(=O)O)C(=O)O)C(=O)O)C(=O)N[C@H](C(N)=O)[C@@H](C)O
notes: also called Chem. 17; Chem 17
For the molecule B4, the “GLP-1R EC50 (pM) [Assay (I)(a)]” value with human GLP-1 receptor [1] was determined as 4 pM. Besides, in the assay with human glucagon receptor [2], the “GlucagonR EC50 (pM), [Assay (I)(b)]” value amounted to 45 pM. The values for the IC50 with human GLP-1 receptor [3] and in the assay with human glucagon receptor [4] were 0.1 nM and 4.3 nM, respectively.

On to H[Aib]QGTFTSDLSRYLDARRARDFVQWLIK([γGlu-γGlu-γGlu-C18 diacid])T-NH2 (also called Chem. 14; Chem 14), for which the “GLP-1R EC50 (pM) [Assay (I)(a)]” value with human GLP-1 receptor [1] came out at 2 pM. For the same molecule, the “GlucagonR EC50 (pM), [Assay (I)(b)]” value in the assay with human glucagon receptor [2] worked out at 9 pM. The IC50 with human GLP-1 receptor [3] was 0.1 nM; with human glucagon receptor [4], 6.4 nM.

B5: N^ε28-[(4S)-4-carboxy-4-[[(4S)-4-carboxy-4-[[2-[2-[2-[[2-[2-[2-[[(4S)-4-carboxy-4-[[(4S)-4-carboxy-4-(17-carboxyheptadecanoylamino)butanoyl]amino]butanoyl]amino … (peptide)
peptide: H[Ac4c]QGTFTSDISKYLESRRAREFVQWLIK([γGlu-γGlu-AEEA-AEEA-γGlu-γGlu-C18 diacid])T-NH2
modifications: N-terminus assumed
SMILES: CC[C@H](C)[C@H](NC(=O)[C@H](CC(=O)O)NC(=O)[C@H](CO)NC(=O)[C@@H](NC(=O)[C@H](Cc1ccccc1)NC(=O)[C@@H](NC(=O)CNC(=O)[C@H](CCC(N)=O)NC(=O)C1(NC(=O)[C@@H](N)Cc2c[nH]cn2)CCC1)[C@@H](C)O)[C@@H](C)O)C(=O)N[C@@H](CO)C(=O)N[C@@H](CCCCN)C(=O)N[C@@H](Cc1ccc(O)cc1)C(=O)N[C@@H](CC(C)C)C(=O)N[C@@H](CCC(=O)O)C(=O)N[C@@H](CO)C(=O)N[C@@H](CCCNC(=N)N)C(=O)N[C@@H](CCCNC(=N)N)C(=O)N[C@@H](C)C(=O)N[C@@H](CCCNC(=N)N)C(=O)N[C@@H](CCC(=O)O)C(=O)N[C@@H](Cc1ccccc1)C(=O)N[C@H](C(=O)N[C@@H](CCC(N)=O)C(=O)N[C@@H](Cc1c[nH]c2ccccc12)C(=O)N[C@@H](CC(C)C)C(=O)N[C@H](C(=O)N[C@@H](CCCCNC(=O)CC[C@H](NC(=O)CC[C@H](NC(=O)COCCOCCNC(=O)COCCOCCNC(=O)CC[C@H](NC(=O)CC[C@H](NC(=O)CCCCCCCCCCCCCCCCC(=O)O)C(=O)O)C(=O)O)C(=O)O)C(=O)O)C(=O)N[C@H](C(N)=O)[C@@H](C)O)[C@@H](C)CC)C(C)C
notes: also called Chem. 26; Chem 26
Take B5: in the assay with human GLP-1 receptor [1], the “GLP-1R EC50 (pM) [Assay (I)(a)]” value was determined as 2 pM. The “GlucagonR EC50 (pM), [Assay (I)(b)]” value in the assay with human glucagon receptor [2] was 42 pM. Moreover, the figures for the IC50 with human GLP-1 receptor [3] and in the assay with human glucagon receptor [4] were 0.4 nM and 10.1 nM, respectively.
